Values of other authors in publication PMC13598549.

Target: TEAD (Homo sapiens) (UniProt P28347)
Chain of UniProt P28347 (P28347 whole entry): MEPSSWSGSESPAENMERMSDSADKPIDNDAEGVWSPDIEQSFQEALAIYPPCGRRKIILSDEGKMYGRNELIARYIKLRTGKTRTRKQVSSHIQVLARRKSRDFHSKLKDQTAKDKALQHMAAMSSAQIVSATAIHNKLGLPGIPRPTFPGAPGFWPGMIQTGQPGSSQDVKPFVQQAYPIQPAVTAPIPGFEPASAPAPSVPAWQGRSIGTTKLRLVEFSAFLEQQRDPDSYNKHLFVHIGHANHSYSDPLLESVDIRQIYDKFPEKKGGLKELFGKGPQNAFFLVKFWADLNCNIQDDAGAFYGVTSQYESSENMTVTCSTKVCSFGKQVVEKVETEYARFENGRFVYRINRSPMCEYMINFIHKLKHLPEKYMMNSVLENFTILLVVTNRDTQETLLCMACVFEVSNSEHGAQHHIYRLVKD

- Kd: 40 nM
Substance: YAP (from UniProt P46937)
